Where two headings read alike, the source gives them in different places.
Key:
Experiment in all cases: ITC
[1] = molecular target: human U2A′ protein, truncated form that included the first 180 amino acids (LRR domain) (human) (UniProt P09661)
[2] = molecular target: human U2A′ protein, truncated form that included the first 180 amino acids (LRR domain) (human) (UniProt P09661); remark: listed apart in the source
[3] = molecular target: human U2A′ protein, truncated form that included the first 180 amino acids (LRR domain) (human) (UniProt P09661); remark: listed apart in the source

Sequence of human U2A′ protein, truncated form that included the first 180 amino acids (LRR domain) (human) (P09661 1-180): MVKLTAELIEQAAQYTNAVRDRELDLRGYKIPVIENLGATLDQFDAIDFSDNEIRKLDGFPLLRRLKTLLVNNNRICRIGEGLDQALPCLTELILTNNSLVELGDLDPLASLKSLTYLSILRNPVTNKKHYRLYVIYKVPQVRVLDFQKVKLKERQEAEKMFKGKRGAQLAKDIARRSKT
Sequence of full-length human U1A protein (P09012 whole entry): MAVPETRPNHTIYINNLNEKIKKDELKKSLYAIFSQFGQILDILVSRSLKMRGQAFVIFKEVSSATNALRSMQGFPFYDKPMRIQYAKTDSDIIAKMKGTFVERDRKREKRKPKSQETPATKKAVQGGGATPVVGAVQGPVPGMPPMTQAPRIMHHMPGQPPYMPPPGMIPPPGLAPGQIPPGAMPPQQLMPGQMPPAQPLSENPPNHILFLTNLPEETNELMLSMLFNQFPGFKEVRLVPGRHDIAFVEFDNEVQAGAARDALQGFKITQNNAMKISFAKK

dH [1]: 2.9 kcal/mol
dH [2]: 2.8 kcal/mol
dH [3]: 2 kcal/mol
Substance: full-length human U1A protein (from UniProt P09012 1-282) (natural protein)

— article PMC4067145
